Results as given in patent publication US20130330328A1 (AstraZeneca / MedImmune, published 2013).
Values belong to the molecule of their own block, whether it stands above or below them.

What was measured:
human CD20 (human) [1] = molecular target: human CD20 (human) (UniProt P11836); test: cell-based or functional assay
human CD20 (human) [2] = molecular target: human CD20 (human) (UniProt P11836); test: flow cytometry, direct binding to JVM-13 (CLL) cells, labeled goat anti-human secondary
human CD20 (human) [3] = molecular target: human CD20 (human) (UniProt P11836); test: flow cytometry, direct binding to Nalm-6 (ALL) cells, labeled goat anti-human secondary
human CD20 (human) [4] = molecular target: human CD20 (human) (UniProt P11836); test: flow cytometry, direct binding to Farage (DLCL) cells, labeled goat anti-human secondary
human CD20 (human) [5] = molecular target: human CD20 (human) (UniProt P11836); test: flow cytometry, direct binding to Toledo (DLCL) cells, labeled goat anti-human secondary
human CD20 (human) [6] = molecular target: human CD20 (human) (UniProt P11836); test: flow cytometry, direct binding to Raji (Burkitt) cells, labeled goat anti-human secondary
human CD20 (human) [7] = molecular target: human CD20 (human) (UniProt P11836); test: flow cytometry, direct binding to Karpas-422 (NHL) cells, labeled goat anti-human secondary
human CD20 (human) [8] = molecular target: human CD20 (human) (UniProt P11836); test: flow cytometry, direct binding to Namalwa (Burkitt) cells, labeled goat anti-human secondary
human CD20 (human) [9] = molecular target: human CD20 (human) (UniProt P11836); test: flow cytometry, direct binding to Granta-519 (NHL/MCL) cells, labeled goat anti-human secondary
human CD19 = molecular target: T1, human CD19 (human, UniProt P15391 20-556); test: cell-based or functional assay
T1 sequence (looked up): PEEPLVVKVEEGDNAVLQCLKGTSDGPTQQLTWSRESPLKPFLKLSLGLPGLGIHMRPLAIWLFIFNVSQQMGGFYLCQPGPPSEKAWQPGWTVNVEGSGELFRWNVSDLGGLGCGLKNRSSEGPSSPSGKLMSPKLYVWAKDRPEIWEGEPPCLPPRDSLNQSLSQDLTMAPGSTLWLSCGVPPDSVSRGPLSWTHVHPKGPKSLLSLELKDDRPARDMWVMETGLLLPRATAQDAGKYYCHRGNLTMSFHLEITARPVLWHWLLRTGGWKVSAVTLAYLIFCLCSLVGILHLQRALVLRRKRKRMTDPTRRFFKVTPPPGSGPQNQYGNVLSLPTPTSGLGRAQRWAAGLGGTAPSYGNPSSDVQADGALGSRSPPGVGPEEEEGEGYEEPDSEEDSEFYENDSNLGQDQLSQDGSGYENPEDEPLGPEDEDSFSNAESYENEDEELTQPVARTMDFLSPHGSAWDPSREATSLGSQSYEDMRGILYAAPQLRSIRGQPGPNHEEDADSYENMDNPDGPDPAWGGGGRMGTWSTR

Sequence of human CD20 (human) (P11836 whole entry): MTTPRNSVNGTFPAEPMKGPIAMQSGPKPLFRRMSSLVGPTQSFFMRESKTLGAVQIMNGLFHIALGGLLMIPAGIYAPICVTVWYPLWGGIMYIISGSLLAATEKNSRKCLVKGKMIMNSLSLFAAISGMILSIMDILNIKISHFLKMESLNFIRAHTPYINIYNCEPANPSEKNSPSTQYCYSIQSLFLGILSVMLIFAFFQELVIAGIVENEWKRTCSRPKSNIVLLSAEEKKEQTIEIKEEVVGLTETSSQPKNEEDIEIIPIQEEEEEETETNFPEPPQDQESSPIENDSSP

- ADCC EC50 [ng/ml], DB (DLCL) cells (human CD20 (human) [1]): 0.24 ng/mL
- ADCC EC50 [ng/ml], Daudi (Burkitt) cells (human CD20 (human) [1]): 0.041 ng/mL
- ADCC EC50 [ng/ml], Farage (DLCL) cells (human CD20 (human) [1]): 0.0113 ng/mL
- ADCC EC50 [ng/ml], JVM-2 (CLL) cells (human CD20 (human) [1]): 0.0586 ng/mL
- ADCC EC50 [ng/ml], JVM-13 (CLL) cells (human CD20 (human) [1]): 0.0317 ng/mL
- ADCC EC50 [ng/ml], Karpas-1106P cells (human CD20 (human) [1]): 0.0137 ng/mL
- ADCC EC50 [ng/ml], MeC2 (CLL) cells (human CD20 (human) [1]): 0.007 ng/mL
- ADCC EC50 [ng/ml], RL (NHL) cells (human CD20 (human) [1]): 0.0296 ng/mL
- ADCC EC50 [ng/ml], Raji (Burkitt) cells (human CD20 (human) [1]): 0.008 ng/mL
- ADCC EC50 [ng/ml], Toledo (DLCL) cells (human CD20 (human) [1]): 0.0319 ng/mL
- EC50, FACS-based ADCC assay with patient CLL samples (human CD20 (human) [1]): 0.639 to 0.682 nM
- MFI at 1 µg/ml (human CD20 (human) [2]): 60 MFI
- MFI at 1 µg/ml (human CD20 (human) [3]): 26 MFI
- MFI at 1 µg/ml (human CD20 (human) [4]): 581 MFI
- MFI at 1 µg/ml (human CD20 (human) [5]): 312 MFI
- MFI at 1 µg/ml (human CD20 (human) [6]): 823 MFI
- MFI at 1 µg/ml (human CD20 (human) [7]): 45 MFI
- MFI at 1 µg/ml (human CD20 (human) [8]): 298 MFI
- MFI at 1 µg/ml (human CD20 (human) [9]): 403 MFI
Molecule: rituximab (antibody)
- % max. cell kill at 10 ug/ml, DB (DLCL) cells (human CD20 (human) [1]): 46%
- % max. cell kill at 10 ug/ml, Daudi (Burkitt) cells (human CD20 (human) [1]): 51%
- % max. cell kill at 10 ug/ml, Farage (DLCL) cells (human CD20 (human) [1]): 54%
- % max. cell kill at 10 ug/ml, JVM-2 (CLL) cells (human CD20 (human) [1]): 49%
- % max. cell kill at 10 ug/ml, JVM-13 (CLL) cells (human CD20 (human) [1]): 50%
- % max. cell kill at 10 ug/ml, Karpas-422 (NHL) cells (human CD20 (human) [1]): 5%
- % max. cell kill at 10 ug/ml, MeC2 (CLL) cells (human CD20 (human) [1]): 42%
- % max. cell kill at 10 ug/ml, Nalm-6 (ALL) cells (human CD20 (human) [1]): 14%
- % max. cell kill at 10 ug/ml, Namalwa (Burkitt) cells (human CD20 (human) [1]): 7%
- % max. cell kill at 10 ug/ml, Raji (Burkitt) cells (human CD20 (human) [1]): 40%
- % max. cell kill at 10 ug/ml, Toledo (DLCL) cells (human CD20 (human) [1]): 55%

- ADCC EC50 [ng/ml], Daudi (Burkitt) cells (human CD19): 0.0031 ng/mL
- ADCC EC50 [ng/ml], Farage (DLCL) cells (human CD19): 0.0141 ng/mL
- ADCC EC50 [ng/ml], JVM-2 (CLL) cells (human CD19): 0.188 ng/mL
- ADCC EC50 [ng/ml], JVM-13 (CLL) cells (human CD19): 0.0368 ng/mL
- ADCC EC50 [ng/ml], Karpas-422 (NHL) cells (human CD19): 0.0181 ng/mL
- ADCC EC50 [ng/ml], Karpas-1106P cells (human CD19): 0.009 ng/mL
- ADCC EC50 [ng/ml], MeC2 (CLL) cells (human CD19): 0.0039 ng/mL
- ADCC EC50 [ng/ml], Nalm-6 (ALL) cells (human CD19): 0.0199 ng/mL
- ADCC EC50 [ng/ml], Namalwa (Burkitt) cells (human CD19): 0.012 ng/mL
- ADCC EC50 [ng/ml], Oci-LY19 (DLCL) cells (human CD19): 0.0163 ng/mL
- ADCC EC50 [ng/ml], RL (NHL) cells (human CD19): 0.0073 ng/mL
- ADCC EC50 [ng/ml], Raji (Burkitt) cells (human CD19): 0.003 ng/mL
- ADCC EC50 [ng/ml], Toledo (DLCL) cells (human CD19): 0.0075 ng/mL
B1: afucosylated anti-CD19 mAb 16C4 (16C4-afuc) (antibody, IgG1, V domains shown)
VH: EVQLVESGGGLVQPGGSLRLSCAASGFTFSSSWMNWVRQAPGKGLEWVGRIYPGDGDTNYNVKFKGRFTISRDDSKNSLYLQMNSLKTEDTAVYYCARSGFITTVRDFDYWGQGTLVTVSS
VL: EIVLTQSPDFQSVTPKEKVTITCRASESVDTFGISFINWFQQKPDQSPKLLIHEASNQGSGVPSRFSGSGSGTDFTLTINSLEAEDAATYYCQQTKEVPFTFGGGTKVEIK
